In patent US20240067714A1:

Columns and labels:
[1] = molecular target: Human TNFα (human) (UniProt P01375); assay: Binding ELISA to hTNFα
[2] = molecular target: FcγRIIIB (CD16b) (UniProt O75015); assay: SPR, against HUMIRA
[3] = molecular target: Human TNFα (human) (UniProt P01375); assay: cell-based or functional assay
[4] = molecular target: FcγRIIIB (CD16b) (UniProt O75015); assay: SPR, Mean (one KD printed)
[5] = molecular target: FcRn (FCGRT&B2M) (UniProt P55899); assay: SPR, steady state model, Mean
[6] = molecular target: FcγRIIA (CD32a, H167) (UniProt P12318); assay: SPR, steady state model, Mean
[7] = molecular target: FcγRIIB (CD32b) (UniProt P31994); assay: SPR, steady state model, Mean
[8] = molecular target: Human TNFα (human) (UniProt P01375); assay: SPR, human TNFα, relative to HUMIRA
[9] = molecular target: Human TNFα (human) (UniProt P01375); assay: ELISA, human TNFα, relative to HUMIRA
[10] = molecular target: Macaque TNFα (macaque) (UniProt P79337); assay: SPR, macaque TNFα, relative to HUMIRA
[11] = molecular target: Macaque TNFα (macaque) (UniProt P79337); assay: ELISA, macaque TNFα, relative to HUMIRA
[12] = molecular target: FcRn (FCGRT&B2M) (UniProt P55899); assay: SPR, steady state model, against HUMIRA
[13] = molecular target: FcγRIIA (CD32a, H167) (UniProt P12318); assay: SPR, steady state model, against HUMIRA
[14] = molecular target: FcγRIIB (CD32b) (UniProt P31994); assay: SPR, steady state model, against HUMIRA
[15] = molecular target: FcγRI (CD64) (UniProt P12314); assay: SPR, heterogenous ligand model, Mean KD1
[16] = molecular target: FcγRIIIA (CD16a, F167) (UniProt P08637); assay: SPR, heterogenous ligand model, Mean KD1
[17] = molecular target: FcγRIIIA (CD16a, V167) (UniProt P08637); assay: SPR, heterogenous ligand model, Mean KD1
[18] = molecular target: FcγRI (CD64) (UniProt P12314); assay: SPR, heterogenous ligand model, Mean KD2
[19] = molecular target: FcγRIIIA (CD16a, F167) (UniProt P08637); assay: SPR, heterogenous ligand model, Mean KD2
[20] = molecular target: FcγRIIIA (CD16a, V167) (UniProt P08637); assay: SPR, heterogenous ligand model, Mean KD2
[21] = molecular target: FcγRI (CD64) (UniProt P12314); assay: SPR, heterogenous ligand model, KD1, against HUMIRA
[22] = molecular target: FcγRIIIA (CD16a, F167) (UniProt P08637); assay: as above
[23] = molecular target: FcγRIIIA (CD16a, V167) (UniProt P08637); assay: as above
[24] = molecular target: FcγRI (CD64) (UniProt P12314); assay: SPR, heterogenous ligand model, KD2, against HUMIRA
[25] = molecular target: FcγRIIIA (CD16a, F167) (UniProt P08637); assay: as above
[26] = molecular target: FcγRIIIA (CD16a, V167) (UniProt P08637); assay: as above
[27] = molecular target: Macaque TNFα (macaque) (UniProt P79337); assay: SPR, macaque TNFα, reference
[28] = molecular target: Macaque TNFα (macaque) (UniProt P79337); assay: ELISA, macaque TNFα, reference

Adalimumab K84N (A-84S) (antibody) showed a Normalized EC50 vs HUMIRA [1] of 121%.
“Adalimumab K84N-D86N (A-8486S) (antibody)” showed a Fold change (KD(HUMIRA)/KD(A-8486S)) [2] of 10.9 fold, a Rel. binding affinity (KD(HUMIRA)/KD(A-8486S)*100) [2] of 1090% and a Normalized EC50 vs HUMIRA [1] of 116%. The L929 apoptosis, Rel. IC50 [3] was 89%, the Kd [4] was 152 nM and the Kd [5] was 1100 nM. The Kd [6] was 785 nM, the Kd [7] was 2200 nM and the Rel. binding affinity [8] was 84%. It also gave a Rel. binding [9] of 86%, a Rel. binding affinity [10] of 77% and a Rel. binding [11] of 99%. It also gave a Fold change (KD(HUMIRA)/KD(A-8486S)) [12] of 0.7 fold, a Rel. binding affinity (KD(HUMIRA)/KD(A-8486S)*100) [12] of 71% and a Fold change (KD(HUMIRA)/KD(A-8486S)) [13] of 0.9 fold. It also gave a Rel. binding affinity (KD(HUMIRA)/KD(A-8486S)*100) [13] of 92%, a Fold change (KD(HUMIRA)/KD(A-8486S)) [14] of 1.4 fold and a Rel. binding affinity (KD(HUMIRA)/KD(A-8486S)*100) [14] of 138%. The Kd [15] was 0.326 nM, the Kd [16] was 12.2 nM and the Kd [17] was 2.69 nM. The Kd [18] was 6.27 nM, the Kd [19] was 123 nM and the Kd [20] was 27.4 nM. It also gave a Fold change (KD(HUMIRA)/KD(A-8486S)) [21] of 1.7 fold, a Rel. binding affinity (KD(HUMIRA)/KD(A-8486S)*100) [21] of 174% and a Fold change (KD(HUMIRA)/KD(A-8486S)) [22] of 21.3 fold. For the same substance, the Rel. binding affinity (KD(HUMIRA)/KD(A-8486S)*100) [22] was 2130%, the Fold change (KD(HUMIRA)/KD(A-8486S)) [23] was 29.8 fold and the Rel. binding affinity (KD(HUMIRA)/KD(A-8486S)*100) [23] was 2980%. The Fold change (KD(HUMIRA)/KD(A-8486S)) [24] was 1.1 fold, the Rel. binding affinity (KD(HUMIRA)/KD(A-8486S)*100) [24] was 109% and the Fold change (KD(HUMIRA)/KD(A-8486S)) [25] was 9 fold. It also gave a Rel. binding affinity (KD(HUMIRA)/KD(A-8486S)*100) [25] of 902%, a Fold change (KD(HUMIRA)/KD(A-8486S)) [26] of 2.8 fold and a Rel. binding affinity (KD(HUMIRA)/KD(A-8486S)*100) [26] of 280%.
Work on HUMIRA (adalimumab) (antibody) yielded a Kd [4] of 1650 nM, a Rel. binding affinity [27] of 100% and a Kd [5] of 778 nM. It also gave a Kd [6] of 723 nM, a Kd [7] of 3040 nM and a Rel. binding [28] of 100%. For the same substance, the Kd [15] was 0.566 nM, the Kd [16] was 260 nM and the Kd [17] was 80.1 nM. For the same substance, the Kd [18] was 6.86 nM, the Kd [19] was 1110 nM and the Kd [20] was 76.6 nM.
